Data on seven molecules can be found in patent US20260167727A1 (FIBRO BIOMED TECHNOLOGY GUANGZHOU, published 2026).

Assay [1] addresses T1, DDR2 antigen overexpressed on cells (UniProt Q16832).
T1 sequence (looked up): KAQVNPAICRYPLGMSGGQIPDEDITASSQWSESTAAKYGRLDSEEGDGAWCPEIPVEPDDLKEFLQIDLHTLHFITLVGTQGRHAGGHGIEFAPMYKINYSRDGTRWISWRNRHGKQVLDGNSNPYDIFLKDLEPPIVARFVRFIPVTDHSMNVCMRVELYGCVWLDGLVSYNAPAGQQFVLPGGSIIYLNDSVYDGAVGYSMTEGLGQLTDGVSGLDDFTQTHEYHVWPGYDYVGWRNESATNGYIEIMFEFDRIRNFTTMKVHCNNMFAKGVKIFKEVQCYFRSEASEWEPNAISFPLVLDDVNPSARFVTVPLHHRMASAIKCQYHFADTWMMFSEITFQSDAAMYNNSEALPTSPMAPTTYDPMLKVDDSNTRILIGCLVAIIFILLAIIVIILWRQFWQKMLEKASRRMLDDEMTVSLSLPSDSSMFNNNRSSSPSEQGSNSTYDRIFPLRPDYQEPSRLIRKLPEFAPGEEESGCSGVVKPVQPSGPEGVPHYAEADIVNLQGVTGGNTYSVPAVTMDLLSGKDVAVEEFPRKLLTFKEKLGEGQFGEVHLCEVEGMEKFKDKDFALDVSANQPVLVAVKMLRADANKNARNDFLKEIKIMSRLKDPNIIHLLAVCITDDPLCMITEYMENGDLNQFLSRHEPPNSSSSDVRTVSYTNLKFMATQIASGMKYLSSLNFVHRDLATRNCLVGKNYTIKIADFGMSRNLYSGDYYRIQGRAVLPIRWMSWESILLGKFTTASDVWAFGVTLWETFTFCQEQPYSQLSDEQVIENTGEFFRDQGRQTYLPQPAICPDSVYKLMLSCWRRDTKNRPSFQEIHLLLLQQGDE
Kind of assay: flow cytometry on 293T DDR2 cells, anti-His-488 secondary; control on 293T DDR2 R3 0.94%; on parental 293T cells 1A1-1A12 R3 0.44% and control R3 0.46%. On the technique in general: A flow cytometer gives signals particle by particle.

The next assay has as its target T2, bovine serum albumin (bovine, UniProt P02769 25-607).
T2 construct: also called BSA; negative control protein
Kind of assay: ELISA at one antibody amount, wells coated with antigen-DDR2 or BSA, OD450. The procedure:
The Flag tag was fused into the nano-antibody gene coding sequence and five DDR2 antibodies with Flag tag were expressed and purified: TAT, 1A5, 1A12, 1B2, 1B3; Then, the extracellular segment of DDR2 antigen was used to coat at 100 ng/well→goat serum was used to block overnight→PBS was used to wash three times, anti-DDR2 (five purified DDR2 antibodies, all comprising Flag tag) 200 ng/well, 37° C. 1 h→Anti Flag (Sigma, F1804-200UG, 1 mg/ml) 1:2500, 37° C. 1 h→G&M (HRP) 1:5000, 37° C. 30 min (horseradish peroxidase labeled anti Flag antibody amplification signal, TMB staining)→TMB staining at 37° C. 30 min→1M HCl for termination; A blank control was prepared simultaneously.
+[0199]5 nano-antibodies that were expressed and purified and identified as correct in the previous step, along with the extracellular segment of DDR2 antigen and the negative control protein bovine serum albumin (BSA), were subjected to ELISA validation.
For orientation: ELISA stands for enzyme-linked immunosorbent assay.

Assay [2] has as its target T3, human DDR2 in lung tissue (human, UniProt Q16832 22-855).
T3 construct: whole, on cells; Endogenous protein in tissue slices; also called DDR2 in lung tissue of IPF patients
T3 sequence (looked up): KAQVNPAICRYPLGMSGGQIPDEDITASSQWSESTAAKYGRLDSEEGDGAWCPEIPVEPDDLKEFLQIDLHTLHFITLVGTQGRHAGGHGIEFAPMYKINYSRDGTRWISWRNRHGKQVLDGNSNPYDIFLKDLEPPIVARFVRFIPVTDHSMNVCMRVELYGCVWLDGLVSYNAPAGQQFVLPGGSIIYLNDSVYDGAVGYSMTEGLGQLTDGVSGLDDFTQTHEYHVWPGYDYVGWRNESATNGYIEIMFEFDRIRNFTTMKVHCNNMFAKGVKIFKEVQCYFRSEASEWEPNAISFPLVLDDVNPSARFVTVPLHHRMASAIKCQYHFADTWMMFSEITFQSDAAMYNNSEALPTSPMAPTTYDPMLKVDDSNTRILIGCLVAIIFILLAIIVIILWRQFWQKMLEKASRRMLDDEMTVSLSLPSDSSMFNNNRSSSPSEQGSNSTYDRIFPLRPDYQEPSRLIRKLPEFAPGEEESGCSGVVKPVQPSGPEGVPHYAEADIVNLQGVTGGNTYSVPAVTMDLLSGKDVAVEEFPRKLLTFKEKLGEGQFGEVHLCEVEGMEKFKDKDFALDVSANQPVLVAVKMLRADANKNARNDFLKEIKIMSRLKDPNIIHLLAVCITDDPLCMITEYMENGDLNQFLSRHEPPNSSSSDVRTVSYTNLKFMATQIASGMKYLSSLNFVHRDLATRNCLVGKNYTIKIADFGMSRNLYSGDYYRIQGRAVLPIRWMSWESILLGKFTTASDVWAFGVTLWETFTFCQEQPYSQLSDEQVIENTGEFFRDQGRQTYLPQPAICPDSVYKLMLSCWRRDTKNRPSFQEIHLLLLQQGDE
Kind of assay: imaging of lung tissue slices of IPF patients and normal donors stained with ICG labeled 1A12. How it is done: Lung tissues from normal donors and patients with idiopathic pulmonary fibrosis (IPF) were cut to a thickness of 600 μm in vitro, with high expression of DDR2 in IPF patients' lung tissues and low or no expression of DDR2 in normal donors' lungs. The Normal group was used as control, and lung tissue slices from IPF patients were used as the experimental group. After staining with ICG labeled DDR2 nano-antibody 1A12, in vitro live imaging was performed.

A further assay addresses T4, mouse DDR2 in tissue (mouse, UniProt Q62371 22-854).
T4 construct: whole, on cells; Endogenous protein in tissue slices, not a purified protein; also called DDR2 in mouse lung tissue slices; DDR2 in the mouse retina
T4 sequence (looked up): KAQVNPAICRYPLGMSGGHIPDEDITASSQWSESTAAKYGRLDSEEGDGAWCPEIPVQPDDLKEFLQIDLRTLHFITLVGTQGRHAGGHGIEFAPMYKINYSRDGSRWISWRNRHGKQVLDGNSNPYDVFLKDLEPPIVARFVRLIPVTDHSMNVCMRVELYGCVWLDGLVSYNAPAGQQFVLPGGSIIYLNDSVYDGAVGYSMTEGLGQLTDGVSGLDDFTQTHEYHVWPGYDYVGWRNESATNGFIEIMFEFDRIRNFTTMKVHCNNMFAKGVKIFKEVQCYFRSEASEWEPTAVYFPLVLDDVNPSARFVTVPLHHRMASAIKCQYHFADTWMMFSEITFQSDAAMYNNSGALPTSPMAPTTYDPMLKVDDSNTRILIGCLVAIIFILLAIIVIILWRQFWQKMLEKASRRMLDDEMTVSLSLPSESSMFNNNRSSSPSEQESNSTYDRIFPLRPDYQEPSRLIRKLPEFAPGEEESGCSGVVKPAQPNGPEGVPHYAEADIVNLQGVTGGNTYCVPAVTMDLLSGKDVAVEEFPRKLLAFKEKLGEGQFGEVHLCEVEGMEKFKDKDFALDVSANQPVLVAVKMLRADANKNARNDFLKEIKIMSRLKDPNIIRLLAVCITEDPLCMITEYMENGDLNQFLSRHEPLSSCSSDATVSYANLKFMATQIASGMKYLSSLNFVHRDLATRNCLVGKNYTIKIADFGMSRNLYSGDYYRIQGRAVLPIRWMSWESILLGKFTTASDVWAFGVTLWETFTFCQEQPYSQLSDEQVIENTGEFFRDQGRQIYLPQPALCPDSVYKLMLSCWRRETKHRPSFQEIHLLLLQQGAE
Description: near-infrared imaging of mouse lung tissue slices stained with ICG labeled 1A12 (untreated, bleomycin, mTGF-β). How it is done:
Fresh lung tissue from normal mice was cut into a thickness of […]. One was used as an untreated control, one was induced with bleomycin, and the other one was induced with mTGF-β cytokines, both for 72 hours (both treatment groups were able to promote DDR2 expression). Then, each group was stained with ICG labeled DDR2 nano-antibody 1A12 (1 ug per sample) for 30 minutes, followed by washing multiple times with PBS to remove non-specific staining. Then, imaging was performed using a live imaging device.

The target in assay [3] is T5, human DDR2 extracellular segment (human, UniProt Q16832 22-399).
T5 construct: range 22-399; In BLI it carried a His tag (printed 'Hig tag') and was captured on Ni-NTA; also called extracellular segment of DDR2 antigen; extracellular segment protein of DDR2 antigen
T5 sequence (looked up): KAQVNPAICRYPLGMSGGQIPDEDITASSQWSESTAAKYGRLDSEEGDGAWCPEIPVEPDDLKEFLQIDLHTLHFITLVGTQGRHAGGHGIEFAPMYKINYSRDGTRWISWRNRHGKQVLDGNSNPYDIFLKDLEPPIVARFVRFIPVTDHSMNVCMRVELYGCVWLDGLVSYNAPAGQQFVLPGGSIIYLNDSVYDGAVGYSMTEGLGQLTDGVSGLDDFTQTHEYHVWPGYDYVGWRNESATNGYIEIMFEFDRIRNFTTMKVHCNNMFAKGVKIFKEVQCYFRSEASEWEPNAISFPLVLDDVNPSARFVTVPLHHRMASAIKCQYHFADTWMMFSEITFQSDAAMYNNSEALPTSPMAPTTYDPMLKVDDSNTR
Description: ELISA, plate coated with DDR2 extracellular segment, Flag-tagged nano-antibody titrated, anti-Flag then HRP secondary, TMB, OD450. More on the design: unit not given here.

T2 sequence (P02769 25-607 limits assumed): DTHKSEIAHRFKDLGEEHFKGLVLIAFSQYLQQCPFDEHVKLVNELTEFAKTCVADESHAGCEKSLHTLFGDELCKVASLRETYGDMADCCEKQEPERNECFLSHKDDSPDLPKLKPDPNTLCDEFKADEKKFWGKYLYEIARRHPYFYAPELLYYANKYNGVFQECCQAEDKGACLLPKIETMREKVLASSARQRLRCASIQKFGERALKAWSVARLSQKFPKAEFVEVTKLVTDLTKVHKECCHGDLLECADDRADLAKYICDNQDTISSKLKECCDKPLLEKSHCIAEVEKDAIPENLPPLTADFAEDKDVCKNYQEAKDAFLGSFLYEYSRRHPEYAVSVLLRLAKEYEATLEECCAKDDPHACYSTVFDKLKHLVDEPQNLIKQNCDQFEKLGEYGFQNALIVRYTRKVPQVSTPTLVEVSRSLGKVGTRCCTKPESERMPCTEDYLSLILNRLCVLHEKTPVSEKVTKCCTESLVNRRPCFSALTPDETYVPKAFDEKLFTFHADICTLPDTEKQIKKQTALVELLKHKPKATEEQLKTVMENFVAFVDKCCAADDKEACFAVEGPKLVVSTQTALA

B1: heterodimeric anti-DDR2 nano-antibody 1A1-1A12 (bispecific antibody, part only; not given: His tag, not shown: small tags and cut ends)
chain, part: EVQLVESGGGLVQPGGSLRLSCAASGYILSPNVMGWFRQAPGKGRELVAAISWGDGRTYYPDSVEGRFTISRDNAKRMVYLQMNSLRAEDTAVYYCAASRKGYPSTRSDPYNYWGQGTQVTVSSGGGSGGGSGGGSEVQLVESGGGLVQPGGSLRLSCAASGRIFSINVMGWFRQAPGKGRELVAAINTRGGSTYYPDSVEGRFTISRDNAKRMVYLQMNSLRAEDTAVYYCAASRKGYPSTRSDPYDYWGQGTQVTVSS
Regarding B1, in assay [1], the R3, percent of cells in the FITC-H positive gate stood at 33%.

B2: anti-DDR2 nano-antibody 1A5 (VHH)
VHH: EVQLVESGGGLVQPGGSLRLSCAASGITLSLYIMGWFRQAPGKGRELVAAISRTGGSTYYPDSVEGRFTISRDNAKRMVYLQMNSLRAEDTAVYYCAADFYGNATLGYNYWGQGTQVTVSS
notes: also called 1A5-VHH
For the molecule B2, the binding result with bovine serum albumin is listed as “no binding”.

B3: anti-DDR2 nano-antibody 1B3 (VHH)
VHH: EVQLVESGGGLVQPGGSLRLSCAASGDTFSYYVMGWFRQAPGKGRELVAAISRTGGSTYYPDSVEGRFTISRDNAKRMVYLQMNSLRAEDTAVYYCAADPYISGTLGYNYWGQGTQVTVSS
notes: also called 1B3-VHH
In the case of B3, in the assay with bovine serum albumin, the binding result is given as “no binding”.

B4: ICG labeled DDR2 nano-antibody 1A12 (VHH)
VHH: EVQLVESGGGLVQPGGSLRLSCAASGYILSPNVMGWFRQAPGKGRELVAAISWGDGRTYYPDSVEGRFTISRDNAKRMVYLQMNSLRAEDTAVYYCAASRKGYPSTRSDPYNYWGQGTQVTVSS
modifications: indocyanine green (ICG) coupled with ICG-NHS; sites not stated
notes: also called ICG labeled 1A12 nano-antibody; Nb-DDR2 labeled with indocyanine green
In the case of B4, the binding result (in assay [2]; with mouse DDR2 in tissue) was “binds” each time.

B5: anti-DDR2 nano-antibody 1A1 (VHH)
VHH: EVQLVESGGGLVQPGGSLRLSCAASGRIFSINVMGWFRQAPGKGRELVAAINTRGGSTYYPDSVEGRFTISRDNAKRMVYLQMNSLRAEDTAVYYCAASRKGYPSTRSDPYDYWGQGTQVTVSS
notes: Expressed in E. coli BL21(DE3); also called 1A1-VHH
Turning to B5, in the assay with bovine serum albumin, the binding result was “no binding”.

B6: anti-DDR2 nano-antibody 1A12 (VHH)
VHH: EVQLVESGGGLVQPGGSLRLSCAASGYILSPNVMGWFRQAPGKGRELVAAISWGDGRTYYPDSVEGRFTISRDNAKRMVYLQMNSLRAEDTAVYYCAASRKGYPSTRSDPYNYWGQGTQVTVSS
notes: also called 1A12-VHH; DDR2 antibody 1A12
Consider B6, for which the binding result with bovine serum albumin is “no binding”. In addition, the “EC50 (read off the curve)” value in assay [3] was about 1.

B7: anti-DDR2 nano-antibody 1B2 (VHH)
VHH: EVQLVESGGGLVQPGGSLRLSCAASGYIFSIYAMGWFRQAPGKGRELVARISWGDGSTWYPDSVEGRFTISRDNAKRMVYLQMNSLRAEDTAVYYCAAAIKGRGVVTQLGYNYWGQGTQVTVSS
notes: also called 1B2-VHH
As for B7, the binding result with bovine serum albumin is listed as “no binding”.
